Source: patent US20200138716A1, “COMPOSITIONS AND METHODS FOR INDUCING NANOPARTICLE-MEDIATED MICROVASCULAR EMBOLIZATION OF TUMORS” (Poseida Therapeutics, Inc., priority 2014, published 2020)

What was measured:
[1] = Biodistribution and pharmacokinetics after IV injection in 4T1 tumor-bearing mice; type: in vivo, balb/c mice; conditions: via the kidneys and into the bladder
Procedure: In example studies, 0.5×106 to 1×10^6 4T1 mouse mammary carcinoma cells were injected into the mammary fat pads of balb/c mice. Once the tumors were greater than 5 mm in diameter, mice were randomized and treated via tail vein catheter with PEMs (at 100 μL of 2.5 mg/mL Mb, corresponding to 50 mg/mL polymer suspensions), empty polymersomes (at equivalent polymer doses), and NIR-Mb (at equivalent myoglobin doses) (n=5 per group). NIR-Mb and PEM were reduced to their oxy-myoglobin form prior to treatment, following protocols discussed above. […]
Fluorescence images were analyzed with Living Image) 4.2 software by measuring radiant efficiency of regions of interest (ROIs). […] The total radiant efficiency of the plasma in each capillary tube was measured in a region of interest of consistent dimensions. Plasma concentrations of PEM and empty polymersomes were calculated based on a standard curve, which was first determined by adding solutions of known concentrations of PZn3-loaded emissive polymersomes to untreated plasma and measuring fluorescence from the capillary tubes. […] Myoglobin concentration versus time was estimated based on the PZn3 fluorescence of the PEM and the IRDye800 fluorescence of NIR-Mb, respectively, with the assumption that all myoglobin remained associated with the PEM following injection.

[2] = Serum chemistry panel in tumor-bearing mice; type: in vivo; conditions: n=5 mice per treatment
Procedure: In example studies, 0.5×106 to 1×10^6 4T1 mouse mammary carcinoma cells were injected into the mammary fat pads of balb/c mice. Once the tumors were greater than 5 mm in diameter, mice were randomized and treated via tail vein catheter with PEMs (at 100 μL of 2.5 mg/mL Mb, corresponding to 50 mg/mL polymer suspensions), empty polymersomes (at equivalent polymer doses), and NIR-Mb (at equivalent myoglobin doses) (n=5 per group). NIR-Mb and PEM were reduced to their oxy-myoglobin form prior to treatment, following protocols discussed above. Mice were sacrificed at 24 h (for biodistribution/pharmacokinetic studies) or at 6-9 days (for histology and toxicology assessment following tumor efficacy studies). In both cases, EF-5 was used to stain for hypoxia and Hoechst solution for perfusion. Tumors were collected at sacrifice. Immunofluorescence (IF) was carried out to image EF-5 and Hoechst distribution throughout the tumors. The same tumor sections were also stained with hematoxylin and eosin (H&E) for immunohistologic (IHC) analysis. Blood was collected via cardiac puncture at sacrifice; plasma was isolated and stored at −80° C. for later analyses.
FIG. 21 provides results of a serum chemistry panel done for a set of tumor-bearing mice injected with each of the following treatments (n=5 mice per treatment): NIR-myoglobin (control), empty polymersomes (control), and PEMs.

B1: NIR-Mb: near-infrared fluorophore (IRDye800cw NHS) covalently attached to the lysines on horse skeletal myoglobin (conjugate, UniProt P68082 2-154, looked up)
Myoglobin: GLSDGEWQQVLNVWGKVEADIAGHGQEVLIRLFTGHPETLEKFDKFKHLKTEAEMKASEDLKKHGTVVLTALGGILKKKGHHEAELKPLAQSHATKHKIPIKYLEFISDAIIHVLHSKHPGDFGADAQGAMTKALELFRNDIAAKYKELGFQG
modifications: IRDye800CW on lysines
notes: near-infrared fluorophore (IRDye800cw NHS) covalently attached to the lysines on horse skeletal myoglobin
[1]
  plasma clearance: extremely rapid plasma clearance
[2]
  serum chemistry panel: no consistently elevated levels for any parameter
